The values below come from PMC2949506.

In assay [1] the target is HIV-1 Vif (HXB2) L145A (HIV-1 (HXB2)) (UniProt P69723). Nature of the assay: pull-down.
The target in assay [2] is Elongin BC complex (human Elongin B with Elongin C residues 17-122) (human) (UniProt Q15370). Briefly: HDX-MS.
The target of assay [3] is Elongin BC complex (Homo sapiens) (UniProt Q15370). Briefly: ITC. The following applies: cited from earlier work.

Regarding “Elongin BC complex (human Elongin B with Elongin C residues 17-122) (from UniProt Q15370 1-118)”, in assay [1], the fold reduction of binding versus wt Vif turned out to be 3 fold.

Broadly, the Kd is the concentration at which binding is half-saturated. Usually stoichiometry N stands for a count of units in the complex or per binding partner. Regarding “Full length HIV-1 Vif (HXB2) (from UniProt P69723) (natural protein)”, in assay [2], the Kd stood at 1.9 µM and the stoichiometry N was 1. Regarding “HIV-1 Vif (HXB2) L145A (from UniProt P69723) (natural protein)”, the Kd in assay [2] is 3.9 µM.

As for Vif 130-180 (from UniProt P69722), the Kd in assay [3] is 1.19 µM.

On to Vif 139-192 (from UniProt P69722), for which the dissociation constant Kd in assay [3] was 0.0004 µM.
